Reference: article PMC3503143

Experiments:
[1] = target: AbBphP1 holoprotein (bacteriophytochrome 1 of Azospirillum brasilense Sp7, biliverdin-bound) (Azospirillum brasilense Sp7); assay: cross-linking
[2] = target: AbBphP1 holoprotein (bacteriophytochrome 1 of Azospirillum brasilense Sp7, biliverdin-bound) (Azospirillum brasilense Sp7); assay: SEC

“AbBphP1 holoprotein (bacteriophytochrome 1 of Azospirillum brasilense Sp7, biliverdin-bound) (natural protein)” was tested, and the stoichiometry N [1] was 2 and the stoichiometry N [2] was 2.
